For data set [1], the target named is NatT toxin (PA1030), His-tagged, co-expressed with NatR in E. coli (P. aeruginosa) (UniProt Q9I4U4). Kind of data set: mass photometry.
The target in data set [2] is NatR antitoxin (PA1029), co-expressed with His-tagged NatT in E. coli (P. aeruginosa). Kind of data set: crystal structure.
The data set “crystal structure” concerns the molecule itself. In words: crystal structure.

As to “NatR antitoxin (PA1029), co-expressed with His-tagged NatT in E. coli (natural protein)”, the stoichiometry N in data set [1] and in data set [2] was 2 each time.

B1: NatT toxin (PA1030), His-tagged, co-expressed with NatR in E. coli (enzyme)
chain: SEIWRQCKGERHIRPLQGRLVRLVESQEQVATLQLVDTLEEQALLEELLESSKPPVPADAEPLHYLLKTPFRYPPLRWGSRFGRRHEPSLFYAALKLETAMAESAYYRCVLWSGMVVPPPSGRILSEHASFEAGWKVERGIRLQAPPFSDHEAALTDIADYRAPQELGSAMRSAGVQAFEYRSARCPERGCNVALFTPAAFTEKRPRNLTPWLCETTAGYVAFKPAHVPGSPKIFSWELFLVDGKLPHPA
B1: the “stoichiometry N” value in the data set “crystal structure” amounted to 2.

As a reminder, the stoichiometry N is a count of units in the complex or per binding partner.

The values are drawn from article doi:10.1101/2023.09.28.559889 (bioRxiv, 2023).
